From PMC6237427
pKd: −log10 of the molar value.

Legend:
[1] = target: germline-reverted VRC01; test: BLI; Octet Red, 29°C, shaking 500 r.p.m.; germline-reverted VRC01 IgG immobilised on anti-AHC biosensors (40 μg/ml in PBS); Env gp140 trimers in 2-fold dilution series (4 μM to >250 nM) in kinetic buffer (1X PBS pH7.4, 0.1% BSA, 0.02% Tween 20, 0.05% NaN3); 300 s association, 600 s dissociation; 1:1 binding model; relative apparent affinities
[2] = target: HIV-1 426c Env on Env-pseudotyped virus produced in 293S GnT1- cells (HIV-1)
[3] = target: HIV-1 426c.DM (N460D.N463D) Env on Env-pseudotyped virus produced in 293S GnT1- cells (HIV-1)
[4] = target: HIV-1 426c.SM (N276D) Env on Env-pseudotyped virus produced in 293S GnT1- cells (HIV-1)
[5] = target: HIV-1 426c.TM1 (N276D.N460D.N463D) Env on Env-pseudotyped virus produced in 293S GnT1- cells (HIV-1)
[6] = target: HIV-1 426c.TM4 (S278R.G471S.N460D.N463D) Env on Env-pseudotyped virus produced in 293S GnT1- cells (HIV-1)
[7] = target: HIV-1 426c.TM4 (S278R.G471S.N460D.N463D) Env on Env-pseudotyped virus produced in 293T cells (HIV-1)
[8] = target: HIV-1 TRO.11 Env on Env-pseudotyped virus produced in 293S GnT1- cells (HIV-1)
[9] = target: HIV-1 TRO.11 Env on Env-pseudotyped virus produced in 293T cells (HIV-1)
[10] = target: HIV-1 426c Env on Env-pseudotyped virus produced in 293T cells (HIV-1)
[11] = target: HIV-1 426c.DM (N460D.N463D) Env on Env-pseudotyped virus produced in 293T cells (HIV-1)
[12] = target: HIV-1 426c.SM (N276D) Env on Env-pseudotyped virus produced in 293T cells (HIV-1)
[13] = target: HIV-1 426c.TM1 (N276D.N460D.N463D) Env on Env-pseudotyped virus produced in 293T cells (HIV-1)

Row | Substance | pKd [1] | koff [1] | kon [1] | IC50 of neutralization of the Env-pseudotyped virus in TZM-bl cells [2] | IC50 of neutralization of the Env-pseudotyped virus in TZM-bl cells [3] | IC50 of neutralization of the Env-pseudotyped virus in TZM-bl cells [4] | IC50 of neutralization of the Env-pseudotyped virus in TZM-bl cells [5] | IC50 of neutralization of the Env-pseudotyped virus in TZM-bl cells [6] | IC50 of neutralization of the Env-pseudotyped virus in TZM-bl cells [7] | IC50 of neutralization of the Env-pseudotyped virus in TZM-bl cells [8] | IC50 of neutralization of the Env-pseudotyped virus in TZM-bl cells [9] | IC50 of neutralization of the Env-pseudotyped virus in TZM-bl cells [10] | IC50 of neutralization of the Env-pseudotyped virus in TZM-bl cells [11] | IC50 of neutralization of the Env-pseudotyped virus in TZM-bl cells [12] | IC50 of neutralization of the Env-pseudotyped virus in TZM-bl cells [13]
1 | 426c N276D gp140 (293T), uncleaved soluble trimer (domain or fragment) | 7.23 | 0.000193 s⁻¹ | 9010 M⁻¹ s⁻¹ | – | – | – | – | – | – | – | – | – | – | – | –
2 | 426c N276D gp140 (GnT1-), uncleaved soluble trimer (domain or fragment) | 6.75 | 0.000739 s⁻¹ | 11100 M⁻¹ s⁻¹ | – | – | – | – | – | – | – | – | – | – | – | –
3 | TM1 gp140 (293T), uncleaved soluble 426c trimer (domain or fragment) | 7.53 | 0.000148 s⁻¹ | 5030 M⁻¹ s⁻¹ | – | – | – | – | – | – | – | – | – | – | – | –
4 | TM1 gp140 (GnT1-), uncleaved soluble 426c trimer (domain or fragment) | 7.37 | 0.000229 s⁻¹ | 5370 M⁻¹ s⁻¹ | – | – | – | – | – | – | – | – | – | – | – | –
5 | germline-reverted 3BNC117 (antibody) | – | – | – | > 25 µg/mL | > 25 µg/mL | > 25 µg/mL | > 25 µg/mL | > 25 µg/mL | > 25 µg/mL | – | – | – | – | – | –
6 | germline-reverted 12A12 (antibody) | – | – | – | > 25 µg/mL | > 25 µg/mL | > 25 µg/mL | > 25 µg/mL | 0.63 µg/mL | > 25 µg/mL | – | – | – | – | – | –
7 | germline-reverted VRC01 (antibody) | – | – | – | > 50 µg/mL | > 50 µg/mL | 0.99 µg/mL | 1.37 µg/mL | 0.36 µg/mL | > 25 µg/mL | > 50 µg/mL | > 50 µg/mL | > 50 µg/mL | > 50 µg/mL | > 50 µg/mL | > 50 µg/mL
8 | germline-reverted VRC03 (antibody) | – | – | – | > 25 µg/mL | > 25 µg/mL | > 25 µg/mL | > 25 µg/mL | > 25 µg/mL | > 25 µg/mL | – | – | – | – | – | –
9 | germline-reverted VRC04 (antibody) | – | – | – | > 25 µg/mL | > 25 µg/mL | > 25 µg/mL | > 25 µg/mL | > 25 µg/mL | > 25 µg/mL | – | – | – | – | – | –
10 | germline-reverted VRC07 (antibody) | – | – | – | > 25 µg/mL | > 25 µg/mL | 0.76 µg/mL | 1.6 µg/mL | 1.7 µg/mL | > 25 µg/mL | – | – | – | – | – | –
11 | germline-reverted VRC18b (antibody) | – | – | – | > 25 µg/mL | > 25 µg/mL | > 25 µg/mL | 23 µg/mL | 17.3 µg/mL | > 25 µg/mL | – | – | – | – | – | –
12 | germline-reverted VRC20 (antibody) | – | – | – | > 25 µg/mL | > 25 µg/mL | 10.3 µg/mL | 4.6 µg/mL | 0.03 µg/mL | 2.39 µg/mL | – | – | – | – | – | –
13 | germline-reverted VRC23 (antibody) | – | – | – | > 25 µg/mL | > 25 µg/mL | > 25 µg/mL | > 25 µg/mL | > 25 µg/mL | > 25 µg/mL | – | – | – | – | – | –
